Changes are numbered by the printed parent chain.
T1: ActR-IIBECD L61P (UniProt P27040 19-137, L61P)
T1 construct: also called ActR-IIBL61P; source: E. coli OrigamiB (DE3), purified (Ni2+-IMAC, thrombin cleavage, anion exchange, RP-HPLC)
T1 sequence (looked up): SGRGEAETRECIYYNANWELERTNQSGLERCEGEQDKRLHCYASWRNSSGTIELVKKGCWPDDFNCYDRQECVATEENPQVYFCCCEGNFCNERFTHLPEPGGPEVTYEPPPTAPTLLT

T2: ActR-IIBECD L61A (UniProt P27040 19-137, L61A)
T2 construct: also called ActR-IIBL61A; source: E. coli OrigamiB (DE3), purified (Ni2+-IMAC, thrombin cleavage, anion exchange, RP-HPLC)
T2 sequence (looked up): T1 sequence (looked up) with P61A

T3: BMPR-II receptor ectodomain (UniProt Q13873 27-150)
T3 construct: BMP type II receptor (BMPR-II), extracellular domain; also called BMPR-IIECD; source: expressed and purified as described earlier [28]
T3 sequence (looked up): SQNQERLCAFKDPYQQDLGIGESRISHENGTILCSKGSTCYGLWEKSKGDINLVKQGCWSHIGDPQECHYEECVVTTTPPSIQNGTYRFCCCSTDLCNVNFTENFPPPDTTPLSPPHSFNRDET

T4: BMP-7 (CHO cells, R&D Systems) (UniProt P18075 293-431, biotin (biotinylated for the biosensor; site not stated))
T4 construct: bone morphogenetic protein 7 (BMP-7), mature ligand; source: bought: R&D Systems (CHO cells)
T4 sequence (looked up): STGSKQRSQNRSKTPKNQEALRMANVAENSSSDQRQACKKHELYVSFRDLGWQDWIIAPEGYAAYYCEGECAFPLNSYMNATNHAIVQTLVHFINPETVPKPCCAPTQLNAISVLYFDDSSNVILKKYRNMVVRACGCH

B1: activin A (Sf9 cells) (ligand, UniProt P08476 311-426, looked up)
chain: GLECDGKVNICCKKQFFVSFKDIGWNDWIIAPSGYHANYCEGECPSHIAGTSGSSLSFHSTVINHYRMRGHSPFANLKSCCVPTKLRPMSMLYYDDGQNIIKKDIQNMIVEECGCS
modifications: biotin (biotinylated for the biosensor; site not stated)
notes: activin A (dimer of inhibin beta A chains), mature ligand; also called Act-A; source: Sf9 cells [59]
B2: ActR-IIBECD wildtype (activin type IIB receptor ectodomain) (receptor, UniProt P27040 19-137, looked up)
chain: T1 sequence (looked up) with P61L
notes: source: E. coli OrigamiB (DE3), purified (Ni2+-IMAC, thrombin cleavage, anion exchange, RP-HPLC)

Key:
Conditions in all cases: both partners purified
[1] = biological target: T5, ActR-II receptor ectodomain (UniProt P27037 20-135); assay: SPR; BIACORE 2000; biotinylated ligand on a streptavidin-modified CM5 chip (about 200 RU); receptor ectodomain as analyte at 1, 2, 3, 5, 10, 20 and 50 uM; HBS500 (10 mM HEPES pH 7.4, 500 mM NaCl, 3.4 mM EDTA, 0.005% P20); apparent KD from the dose dependence of equilibrium binding
T5 construct: activin receptor type II (ActR-II), extracellular domain; also called ActR-IIECD; source: expressed and purified as described earlier [28]

[2] = biological target: B2; assay: as above
ActR-IIBECD L61P = biological target: T1, ActR-IIBECD L61P; assay: as above
ActR-IIBECD L61A = biological target: T2, ActR-IIBECD L61A; assay: as above
[3] = biological target: T3, BMPR-II receptor ectodomain; assay: as above
[4] = biological target: T5, ActR-II receptor ectodomain; assay: as above; remark: listed apart in the source
[5] = biological target: B2; assay: as above; remark: listed apart in the source
[6] = biological target: T6, binary complex BMP-2:BMPR-IAECD (UniProt P12643 283-396; P36894 24-152); assay: ITC; isothermal titration calorimetry, 25°C; who was titrated is not told
T6 construct: bone morphogenetic protein 2 (BMP-2), mature ligand, as m1; BMP type IA receptor (BMPR-IA), extracellular domain, as m25; also called BMP-2 complexed with BMPR-IAECD; BMP-2:(BMPR-IAECD)2; source: formed from the purified proteins and purified as described [58]; copies: 2 + 2

[7] = biological target: T4, BMP-7 (CHO cells, R&D Systems); assay: SPR; BIACORE 2000; biotinylated ligand on a streptavidin-modified CM5 chip (about 200 RU); receptor ectodomain as analyte at 1, 2, 3, 5, 10, 20 and 50 uM; HBS500 (10 mM HEPES pH 7.4, 500 mM NaCl, 3.4 mM EDTA, 0.005% P20); apparent KD from the dose dependence of equilibrium binding
[8] = biological target: T4, BMP-7 (CHO cells, R&D Systems); assay: as above; remark: listed apart in the source

Kd [1] | Kd [2] | Kd (ActR-IIBECD L61P) | Kd (ActR-IIBECD L61A) | Kd [3] | Kd [4] | Kd [5] | dH [6] | Kd [7] | Kd [8] | Binder
~250 nM | 65 nM | 180000 nM | 2000 nM | 8700 nM | 230 nM | 60 nM | – | – | – | B1
– | – | – | – | – | – | – | 14 kcal/mol | 3600 nM | 2800 nM | B2
